{"source": "paper PMC4032258", "about": "“Transmembrane Recognition of the Semaphorin Co-Receptors Neuropilin 1 and Plexin A1: Coarse-Grained Simulations” (PLoS ONE, 2014)", "molecular_target": "the molecule itself", "assay": "two-hybrid; bacterial adenylate cyclase two-hybrid (BACTH) in E. coli BTH101 (cya-); TM sequences fused to T18 and T25 fragments of CyaA behind an OmpA signal sequence; read out on MacConkey indicator plates and by beta-galactosidase activity, normalised to GpA-GpA as 100%"}
{"protein": "ILITIIAMSALGVLLGAVCGVVLYRKR (domain or fragment, human, not part of NRP1; Modified pKTN25 and pUT18 plasmids; also called NRP1 TM domain; source: bacterial two-hybrid fusion (BACTH), E. coli BTH101 (cya-), cotransformed plasmids; not shown: T25 or T18 fragment of Bordetella pertussis adenylate cyclase CyaA, C-terminal, kept)", "note": "[Neuropilin 1 transmembrane domain (NRP1 TM), BACTH fusion]", "values": [{"measurement": "interaction propensity (beta-galactosidase activity) relative to GpA-GpA", "value": "~50", "unit": "%"}]}
